d = 2'-deoxy (DNA); r = 2'-OH (RNA)
Assays:
[1] = Critical micelle concentration (CMC) determination with pyrene probe; format: physicochemical; settings: micelles after DNA2 hybridization
Protocol: Critical Micelle Concentration (CMC) determination. A stock solution of pyrene was prepared by adding 1 mg pyrene in 10 mL of 20 mM Tris buffer (pH 7.4) and sonicating for 12 hrs, followed by centrifugation at 12,000×g for 5 min. The supernatant containing pyrene as the fluorescent probe was utilized for this assay and measured on a plate reader fluorometer, SPECTRAMAX GEMINI EM (Molecular Devices). DNA-lipid concentration was measured via UV absorbance and micelles were accordingly diluted serially in 96-well microplates (black well, black bottom, FIA, Greiner Bio-One). Excitation was done over a 300-360 nm wavelength range and the emission was recorded at 390 nm. The slit width for excitation was fixed at 1 nm. The concentration was plotted on a logarithmic scale and the critical micelle concentration was determined at the intercept of the two tangents drawn where the decreasing surface tension becomes constant.

[2] = Zeta potential measurement with variable MgCl2 concentration; format: physicochemical; settings: vesicles, 5 mM MgCl2
From the text: (§1) General Methods. All reagents were bought from TCI or Sigma-Aldrich and used without further purification. DNA synthesis reagents and modifiers were bought from Glen Research or AZCO scientific. 3,4-di(octadecyloxy)benzoic acid was synthesized via a standard literature procedure (Tuffin, R. P.; Toyne, K. J.; Goodby, J. W. J. Mater. Chem. 1996, 6, 1271-1282). All DNA was synthesized on an ABI-391 via standard solid phase synthesis on controlled pore glass supports. Fluorescence measurements were performed on a Zeiss LSM confocal fluorescence microscope. Reaction volumes of 50 μL were used in all fluorescence experiments of this type. […] DNA-surfactant and DNA concentrations were determined via UV-Vis on a Hitachi U-2810 spectrophotometer. Dh was determined by DLS on a Nano-ZS90 Malvern Instrument. Zeta potential was also measured on the Nano-ZS90 Malvern instrument. […] The identities of organic molecules were confirmed by ^1H (400 MHz) and ^13C (100 MHz) NMR spectra recorded on a Varian Mercury Plus spectrometer. […]
Zeta potential measurement with variable MgCl2 concentration. […] The zeta potential of these samples with variable MgCl2 concentrations was then measured by a Nano-ZS90 Malvern instrument. […]

[3] = Particle size by DLS, TEM, AFM, SEM; format: physicochemical
From the text: as §1
General Methods. […] Fluorescence measurements were performed with a microplate reader (Perkin Elmer, HTS7000 Plus, λex=485 nm, λem=535 nm) using black 96 well plates. Reaction volumes of 100 μL were used in all fluorescence experiments of this type. […]

DNAzyme = DNAzyme catalysis experiments: particle substrate vs ssDNA substrate; format: biochemical
Protocol: DNAzyme catalysis experiments. Fluorescence was directly measured at time points of 2 min, 5 min, 10 min, and 15 min after adding DNAzyme to F-ssDNA solutions in a 96-well plate. Maximum fluorescence for the DNAzyme (5 nM) added to micellar particles (0.14 g/L) at 15 minutes was set to a value of 1 for normalization of data. Complete consumption of particle bound substrate was confirmed by a calibration curve plotted for fluorescence vs concentration of a fluorescein-modified oligonucleotide (DNA-F—see above for synthesis and sequence). i.e. plateau in resulting curve is due to consumption of substrate not product inhibition. […] Fluorescent product from shell DNA cleavage was measured from supernatant that passed through a 10,000 MWCO spin tube filter. i.e. particles are left behind, and fluorescent product comes through for analysis at each time point. […]
The DNAzyme catalyst consists of a conserved DNA sequence forming a catalytic domain with 5′- and 3′-ends as recognition sequences.^22 Therefore, a DNA substrate with a single RNA base (rA) as the site of cleavage was chosen for incorporation in the DNA-brush copolymer architecture used to form micellar aggregates (FIG. 25). […] By centrifuging at 14,000×g for 30 seconds at given time points, the ssDNA product was separated from particles as it passed through the MWCO filter for analysis by fluorescence. […]

Substance	critical micelle concentration [1]	zeta-potential [2]	micelle size ([3]; after DNA2 addition to vesicles)	vesicle diameter ([3]; spherical vesicles after dialysis, Tris 50 mM pH 7.4)	DNAzyme turnovers (DNAzyme; 2 μM substrate, 5 nM catalyst)	DNAzyme turnover over the same time scale (15 minutes) (DNAzyme; F-ssDNA 1 μM, DNAzyme 5 nM)
DNA1-lipid: 3,4-di(octadecyloxy)benzoic acid conjugated to 5′-amino 9-mer ssDNA 5′-NH2-TCGCACCCA-3′; assembles into vesicles	300 nM	−13 mV	20-25 nm	approx. 500 nm	–	–
Fluorescein-5′-TCGCACCCrAGTCTCTCTCC-3′-Dabcyl (DNA TCGCACCCAGTCTCTCTCC; sugars from the 5' end d8 r1 d10, backbone not given here; further chemistry not fully specified) [F-ssDNA, fluorogenic single-stranded DNA substrate]	–	–	–	–	1.5 turnovers	low turnover

— patent publication US9040626B2, “Nanofibers and morphology shifting micelles” (The Regents of the University of California, priority 2009, dated 2015)
